Experimental data published in patent US20230242651A1 (published 2023).
Blank lines part the entries; values can stand above or below the binder they belong to.

Columns and labels:
[1] = molecular target: human TNF (human, UniProt P01375 77-233); test: SPR, scFv
[2] = molecular target: T1, human interleukin-23 receptor (IL23R) (human, UniProt Q5VWK5 24-355, limits assumed); test: SPR, scFv
T1 construct: also called human IL23R
T1 sequence (looked up): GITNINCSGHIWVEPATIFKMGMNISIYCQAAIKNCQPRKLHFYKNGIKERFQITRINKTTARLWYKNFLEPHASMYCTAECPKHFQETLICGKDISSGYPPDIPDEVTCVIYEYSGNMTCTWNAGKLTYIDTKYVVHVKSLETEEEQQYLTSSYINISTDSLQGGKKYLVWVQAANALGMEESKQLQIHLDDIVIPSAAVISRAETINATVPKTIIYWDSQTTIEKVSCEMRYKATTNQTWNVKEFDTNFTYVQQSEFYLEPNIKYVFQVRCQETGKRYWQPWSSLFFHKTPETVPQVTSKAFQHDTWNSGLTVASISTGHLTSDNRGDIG
Method in brief: (§1)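 Humanized rabbit variable domains were built as single-chain variable fragments (scFv) on consensus germline framework pairs, some carrying a λ-cap in which Vκ framework IV was replaced by a Vλ germline sequence. These were expressed in E. coli as inclusion bodies, then solubilized and refolded in a generic refolding buffer. Affinity for human IL23R was determined by surface plasmon resonance and reported as rate constants and dissociation constant, or as the ratio of the λ-capped to uncapped dissociation constant.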

[3] = molecular target: T1, human interleukin-23 receptor (IL23R); test: SPR; KD of the capped scFv over KD of its uncapped counterpart
Method in brief: as §1

[4] = molecular target: T1, human interleukin-23 receptor (IL23R); test: SPR, scFv (summary table)
Method in brief: as §1

Chain of human TNF (P01375 77-233 limits assumed): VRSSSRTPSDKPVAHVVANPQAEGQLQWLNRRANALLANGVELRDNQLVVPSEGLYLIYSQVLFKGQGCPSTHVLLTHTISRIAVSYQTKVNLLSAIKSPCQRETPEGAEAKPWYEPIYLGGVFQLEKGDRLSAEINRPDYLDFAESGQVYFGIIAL

B1: VK1/VH3 consensus λ-capped, TNF-specific scFv (scFv)
scFv: DIQMTQSPSSLSASVGDRVTITCQASQSISDWLAWYQQKPGKAPKLLIYGASRLASGVPSRFSGSGSGTDFTLTISSLQPEDFATYYCQQGWSDSYVDNLFGGGTKLTVLGGGGGSGGGGSGGGGSGGGGSEVQLVESGGGLVQPGGSLRLSCAASGFSLSSGAMSWVRQAPGKGLEWVSVIISSGATYYASWAKGRFTISRDNSKNTLYLQMNSLRAEDTAVYYCARGGPDDSNSMGTFDPWGQGTLVTVSS
notes: also called capped Vκ1/VH3 consensus molecule (TNF CDRs)
- Kd [1]: 0.225 nM
- koff [1]: 9.41e-05 s⁻¹
- kon [1]: 419000 M⁻¹ s⁻¹

B4: Vκ2/VH5 consensus λ-capped, human IL23R specific scFv (scFv)
scFv: DIVMTQSPLSLPVTPGEPASISCQASENIYSFLAWYLQKPGQSPQLLIYSASKLAAGVPDRFSGSGSGTDFTLKISRVEAEDVGVYYCQQTNRYSNPDIYNVFGGGTKLTVLGGGGGSGGGGSGGGGSGGGGSEVQLVQSGAEVKKPGESLKISCKGSGIDFNSNYYMCWVRQMPGKGLEWMGCIYVGSHVNTYYANWAKGQVTISADKSISTAYLQWSSLKASDTAMYYCATSGSSVLYFKFWGQGTLVTVSS
notes: scFv VL-linker-VH, made in E. coli; also called Vκ2VH5 capped
- Kd [2]: 0.476 nM
- koff [2]: 0.000715 s⁻¹
- kon [2]: 1.5e+06 M⁻¹ s⁻¹
- Ratio (capped/uncapped) of KD [3]: 1.6
- Kd [4]: 0.476 nM

B5: Vκ1/VH6 consensus λ-capped, human IL23R specific scFv (scFv)
scFv: DIQMTQSPSSLSASVGDRVTITCQASENIYSFLAWYQQKPGKAPKLLIYSASKLAAGVPSRFSGSGSGTDFTLTISSLQPEDFATYYCQQTNRYSNPDIYNVFGGGTKLTVLGGGGGSGGGGSGGGGSGGGGSQVQLQQSGPGLVKPSQTLSLTCAISGIDFNSNYYMCWIRQSPGRGLEWLGCIYVGSHVNTYYANWAKGRITINPDTSKNQFSLQLNSVTPEDTAVYYCATSGSSVLYFKFWGQGTLVTVSS
notes: scFv VL-linker-VH, made in E. coli; also called Vκ1VH6 capped
- Kd [2]: 0.245 nM
- koff [2]: 0.000349 s⁻¹
- kon [2]: 1.42e+06 M⁻¹ s⁻¹
- Ratio (capped/uncapped) of KD [3]: 1
- Kd [4]: 0.245 nM

B7: Vκ2/VH1A consensus λ-capped, human IL23R specific scFv (scFv)
scFv: DIVMTQSPLSLPVTPGEPASISCQASENIYSFLAWYLQKPGQSPQLLIYSASKLAAGVPDRFSGSGSGTDFTLKISRVEAEDVGVYYCQQTNRYSNPDIYNVFGGGTKLTVLGGGGGSGGGGSGGGGSGGGGSQVQLVQSGAEVKKPGSSVKVSCKASGIDFNSNYYMCWVRQAPGQGLEWMGCIYVGSHVNTYYANWAKGRVTITADESTSTAYMELSSLRSEDTAVYYCATSGSSVLYFKFWGQGTLVTVSS
notes: scFv VL-linker-VH, made in E. coli; also called Vκ2VH1A capped
- Kd [2]: 0.0772 nM
- koff [2]: 0.000184 s⁻¹
- kon [2]: 2.39e+06 M⁻¹ s⁻¹
- Ratio (capped/uncapped) of KD [3]: 0.3
- Kd [4]: 0.0772 nM

B8: Vκ3/VH1A consensus λ-capped, human IL23R specific scFv (scFv)
scFv: DIVLTQSPATLSLSPGERATLSCQASENIYSFLAWYQQKPGQAPRLLIYSASKLAAGVPARFSGSGSGTDFTLTISSLEPEDFAVYYCQQTNRYSNPDIYNVFGGGTKLTVLGGGGGSGGGGSGGGGSGGGGSQVQLVQSGAEVKKPGSSVKVSCKASGIDFNSNYYMCWVRQAPGQGLEWMGCIYVGSHVNTYYANWAKGRVTITADESTSTAYMELSSLRSEDTAVYYCATSGSSVLYFKFWGQGTLVTVSS
notes: scFv VL-linker-VH, made in E. coli; also called Vκ3VH1A capped
- Kd [2]: 0.585 nM
- koff [2]: 0.00117 s⁻¹
- kon [2]: 2e+06 M⁻¹ s⁻¹
- Ratio (capped/uncapped) of KD [3]: 2
- Kd [4]: 0.585 nM

B9: Vκ3/VH1B consensus λ-capped, human IL23R specific scFv (scFv)
scFv: DIVLTQSPATLSLSPGERATLSCQASENIYSFLAWYQQKPGQAPRLLIYSASKLAAGVPARFSGSGSGTDFTLTISSLEPEDFAVYYCQQTNRYSNPDIYNVFGGGTKLTVLGGGGGSGGGGSGGGGSGGGGSQVQLVQSGAEVKKPGASVKVSCKASGIDFNSNYYMCWVRQAPGQGLEWMGCIYVGSHVNTYYANWAKGRVTMTRDTSISTAYMELSSLRSEDTAVYYCATSGSSVLYFKFWGQGTLVTVSS
notes: scFv VL-linker-VH, made in E. coli; also called Vκ3VH1B capped
- Kd [2]: 0.181 nM
- koff [2]: 0.000506 s⁻¹
- kon [2]: 2.8e+06 M⁻¹ s⁻¹
- Ratio (capped/uncapped) of KD [3]: 0.4
- Kd [4]: 0.181 nM

B11: Vκ3/VH2 consensus λ-capped, human IL23R specific scFv (scFv)
scFv: DIVLTQSPATLSLSPGERATLSCQASENIYSFLAWYQQKPGQAPRLLIYSASKLAAGVPARFSGSGSGTDFTLTISSLEPEDFAVYYCQQTNRYSNPDIYNVFGGGTKLTVLGGGGGSGGGGSGGGGSGGGGSQVQLKESGPALVKPTQTLTLTCTFSGIDFNSNYYMCWIRQPPGKALEWLACIYVGSHVNTYYANWAKGRLTISKDTSKNQVVLTMTNMDPVDTATYYCATSGSSVLYFKFWGQGTLVTVSS
notes: scFv VL-linker-VH, made in E. coli; also called Vκ3VH2 capped
- Kd [2]: 0.0916 nM
- koff [2]: 0.000152 s⁻¹
- kon [2]: 1.66e+06 M⁻¹ s⁻¹
- Ratio (capped/uncapped) of KD [3]: 0.2
- Kd [4]: 0.0916 nM

B12: Vκ1/VH5 consensus λ-capped, human IL23R specific scFv (scFv)
scFv: DIQMTQSPSSLSASVGDRVTITCQASENIYSFLAWYQQKPGKAPKLLIYSASKLAAGVPSRFSGSGSGTDFTLTISSLQPEDFATYYCQQTNRYSNPDIYNVFGGGTKLTVLGGGGGSGGGGSGGGGSGGGGSEVQLVQSGAEVKKPGESLKISCKGSGIDFNSNYYMCWVRQMPGKGLEWMGCIYVGSHVNTYYANWAKGQVTISADKSISTAYLQWSSLKASDTAMYYCATSGSSVLYFKFWGQGTLVTVSS
notes: scFv VL-linker-VH, made in E. coli; also called Vκ1VH5 capped
- Kd [2]: 0.398 nM
- koff [2]: 0.000671 s⁻¹
- kon [2]: 1.69e+06 M⁻¹ s⁻¹
- Ratio (capped/uncapped) of KD [3]: 1.7
- Kd [4]: 0.398 nM

B13: Vκ2/VH6 consensus λ-capped, human IL23R specific scFv (scFv)
scFv: DIVMTQSPLSLPVTPGEPASISCQASENIYSFLAWYLQKPGQSPQLLIYSASKLAAGVPDRFSGSGSGTDFTLKISRVEAEDVGVYYCQQTNRYSNPDIYNVFGGGTKLTVLGGGGGSGGGGSGGGGSGGGGSQVQLQQSGPGLVKPSQTLSLTCAISGIDFNSNYYMCWIRQSPGRGLEWLGCIYVGSHVNTYYANWAKGRITINPDTSKNQFSLQLNSVTPEDTAVYYCATSGSSVLYFKFWGQGTLVTVSS
notes: scFv VL-linker-VH, made in E. coli; also called Vκ2VH6 capped
- Kd [2]: 0.887 nM
- koff [2]: 0.000475 s⁻¹
- kon [2]: 535000 M⁻¹ s⁻¹
- Ratio (capped/uncapped) of KD [3]: 0.3
- Kd [4]: 0.887 nM

The remaining lines, values ahead:

- Kd [2]: 0.0481 nM
- koff [2]: 0.000112 s⁻¹
- kon [2]: 2.33e+06 M⁻¹ s⁻¹
- Ratio (capped/uncapped) of KD [3]: 0.4
- Kd [4]: 0.0481 nM
B2: Vκ2/VH4 consensus λ-capped, human IL23R specific scFv (scFv)
scFv: DIVMTQSPLSLPVTPGEPASISCQASENIYSFLAWYLQKPGQSPQLLIYSASKLAAGVPDRFSGSGSGTDFTLKISRVEAEDVGVYYCQQTNRYSNPDIYNVFGGGTKLTVLGGGGGSGGGGSGGGGSGGGGSQVQLQESGPGLVKPSETLSLTCTVSGIDFNSNYYMCWIRQPPGKGLEWIGCIYVGSHVNTYYANWAKGRVTISVDTSKNQFSLKLSSVTAADTAVYYCATSGSSVLYFKFWGQGTLVTVSS
notes: scFv VL-linker-VH, made in E. coli; also called Vκ2VH4 capped

- Kd [2]: 0.0397 nM
- koff [2]: 7.77e-05 s⁻¹
- kon [2]: 1.95e+06 M⁻¹ s⁻¹
- Ratio (capped/uncapped) of KD [3]: 1.7
- Kd [4]: 0.0397 nM
B3: Vκ2/VH3 consensus λ-capped, human IL23R specific scFv (scFv)
scFv: DIVMTQSPLSLPVTPGEPASISCQASENIYSFLAWYLQKPGQSPQLLIYSASKLAAGVPDRFSGSGSGTDFTLKISRVEAEDVGVYYCQQTNRYSNPDIYNVFGGGTKLTVLGGGGGSGGGGSGGGGSGGGGSEVQLVESGGGLVQPGGSLRLSCAASGIDFNSNYYMCWVRQAPGKGLEWVSCIYVGSHVNTYYANWAKGRFTISRDNSKNTLYLQMNSLRAEDTAVYYCATSGSSVLYFKFWGQGTLVTVSS
notes: scFv VL-linker-VH, made in E. coli; also called Vκ2VH3 capped

- Kd [2]: 0.0455 nM
- koff [2]: 0.000191 s⁻¹
- kon [2]: 4.2e+06 M⁻¹ s⁻¹
- Ratio (capped/uncapped) of KD [3]: 0.5
- Kd [4]: 0.0455 nM
B6: Vκ1/VH4 consensus λ-capped, human IL23R specific scFv (scFv)
scFv: DIQMTQSPSSLSASVGDRVTITCQASENIYSFLAWYQQKPGKAPKLLIYSASKLAAGVPSRFSGSGSGTDFTLTISSLQPEDFATYYCQQTNRYSNPDIYNVFGGGTKLTVLGGGGGSGGGGSGGGGSGGGGSQVQLQESGPGLVKPSETLSLTCTVSGIDFNSNYYMCWIRQPPGKGLEWIGCIYVGSHVNTYYANWAKGRVTISVDTSKNQFSLKLSSVTAADTAVYYCATSGSSVLYFKFWGQGTLVTVSS
notes: scFv VL-linker-VH, made in E. coli; also called Vκ1VH4 capped

- Kd [2]: 0.0137 nM
- koff [2]: 5.43e-05 s⁻¹
- kon [2]: 3.95e+06 M⁻¹ s⁻¹
- Ratio (capped/uncapped) of KD [3]: 0.4
- Kd [4]: 0.0137 nM
B10: Vκ1/VH3 consensus λ-capped, human IL23R specific scFv (scFv)
scFv: DIQMTQSPSSLSASVGDRVTITCQASENIYSFLAWYQQKPGKAPKLLIYSASKLAAGVPSRFSGSGSGTDFTLTISSLQPEDFATYYCQQTNRYSNPDIYNVFGGGTKLTVLGGGGGSGGGGSGGGGSGGGGSEVQLVESGGGLVQPGGSLRLSCAASGIDFNSNYYMCWVRQAPGKGLEWVSCIYVGSHVNTYYANWAKGRFTISRDNSKNTLYLQMNSLRAEDTAVYYCATSGSSVLYFKFWGQGTLVTVSS
notes: scFv VL-linker-VH, made in E. coli; also called Vκ1VH3 capped
